Measurements published in FireProtDB (doi:10.1016/j.bbapap.2014.10.010).

B1: Alanine--glyoxylate aminotransferase, P21549 (parent)
chain: MASHKLLVTPPKALLKPLSIPNQLLLGPGPSNLPPRIMAAGGLQMIGSMSKDMYQIMDEIKEGIQYVFQTRNPLTLVISGSGHCALEAALVNVLEPGDSFLVGANGIWGQRAVDIGERIGARVHPMTKDPGGHYTLQEVEEGLAQHKPVLLFLTHGESSTGVLQPLDGFGELCHRYKCLLLVDSVASLGGTPLYMDRQGIDILYSGSQKALNAPPGTSLISFSDKAKKKMYSRKTKPFSFYLDIKWLANFWGCDDQPRMYHHTIPVISLYSLRESLALIAEQGLENSWRQHREAAAYLHGRLQALGLQLFVKDPALRLPTVTTVAVPAGYDWRDIVSYVIDHFDIEIMGGLGPSTGKVLRIGLLGCNATRENVDRVTEALRAALQHCPKKKL

Variants of: B1
Details: Homo sapiens; pH 7.4; Thermal; DSC; Hepes 20 mM; NaCl 200 mM; transition: 2; reversible: No; structure 1H0C; whole UniProt chain shown

Variant | Tm | change of melting temperature, mutant - wild type (higher = more stable) | unfolding enthalpy (calorimetric)
MASHKLLVTPPKALLKPLSIPNQLLLGPGPSNLPPRIMAAGGLQMIGSMHKDMYQIMDEIKEGIQYVFQTRNPLTLVISGSGHCALEAALVNVLEPGDSFLVGANGIWGQRAVDIGERIGARVHPMTKDPGGHYTLQEVEEGLAQHKPVLLFLTHGESSTGVLQPLDGFGELCHRYKCLLLVDSVASLGGTPLYMDRQGIDILYSGSQKALNAPPGTSLISFSDKAKKKMYSRKTKPFSFYLDIKWLANFWGCDDQPRMYHHTIPVISLYSLRESLALIAEQGLENSWRQHREAAAYLHGRLQALGLQLFVKDPALRLPTVTTVAVPAGYDWRDIVSYVIDHFDIEIMGGLGPSTGKVLRIGLLGCNATRENVDRVTEALRAALQHCPKKKL [S50H] | 67.1 °C | -2.9 °C | 357 kcal/mol
MASHKLLVTPPKALLKPLSIPNQLLLGPGPSNLPPRIMAAGGLQMIGHMSKEMYQIMDEIKEGIQYVFQTRNPLTLVISGSGHCALEAALVNVLEPGDSFLVGANGIWGQRAVDIGERIGARVHPMTKDPGGHYTLQEVEEGLAQHKPVLLFLTHGESSTGVLQPLDGFGELCHRYKCLLLVDSVASLGGTPLYMDRQGIDILYSGSQKALNAPPGTSLISFSDKAKKKMYSRKTKPFSFYLDIKWLANFWGCDDQPRMYHHTIPVISLYSLRESLALIAEQGLENSWRQHREAAAYLHGRLQALGLQLFVKDPALRLPTVTTVAVPAGYDWRDIVSYVMDHFDIEIMGGLGPSTGKVLRIGLLGCNATRENVDRVTEALRAALQHCPKKKL [S48H D52E I340M] | 89.5 °C | 19.5 °C | 315 kcal/mol
MASHKLLVTPPKALLKPLSIPNQLLLGPGPSNLPPRIMAAGGLQMIGHMSKEMYQIMDEIKEGIQYVFQTRNPLTLVISGSGHCALEAALVNVLEPGDSFLVGANGIWGQRAADIGERIGARVHPMTKDPGGHYTLQEVEEGLAQHKPVLLFLTHGESSTGVLQPLDGFGELCHRYKCLLLVDSVASLGGTPLYMDRQGIDILYSGSQKALNAPPGTSLISFSDKAKKKMYSRKTKPFSFYLDIKWLANFWGCDDQPRMYHHTIPVISLYSLRESLALIAEQGLENSWRQHREAAAYLHGRLQALGLQLFVKDPALRLPTVTTVAVPAGYDWRDIVSYVMDHFDIEIMGGLGPSTGKVLRIGLLGCNATRENVDRVTEALRAALQHCPKKKL [S48H D52E V113A I340M] | 91 °C | 21 °C | 613 kcal/mol
MASHKLLVTPLKALLKPLSIPNQLLLGPGPSNLPPRIMAAGGLQMIGSMSKDMYQIMDEIKEGIQYVFQTRNPLTLVISGSGHCALEAALVNVLEPGDSFLVGANGIWGQRAVDIGERIGARVHPMTKDPGGHYTLQEVEEGLAQHKPVLLFLTHGESSTGVLQPLDGFGELCHRYKCLLLVDSVASLGGTPLYMDRQGIDILYSGSQKALNAPPGTSLISFSDKAKKKMYSRKTKPFSFYLDTKWLANFWGCDDQPRMYHHTIPVISLYSLRESLALIAEQGLENSWRQHREAAAYLHGRLQALGLQLFVKDPALRLPTVTTVAVPAGYDWRDIVSYVMDHFDIEIMGGLGPSTGKVLRIGLLGCNATRENVDRVTEALRAALQHCPKKKL [P11L I340M I244T] | 75.8 °C | 5.8 °C | 402 kcal/mol
MASHKLLVTPPKALLKPLSIPNRLLLGPGPSNLPPRIMAAGGLQMIGHMSKEMYQIMDEIKEGIQYVFQTRNPLTLVISGSGHCALEAALVNVLEPGDSFLVGANGIWGQRAADIGERIGARVHPMTKDPGGHYTLQEVEEGLAQHKPVLLFLTHGESSTGVLQPLDGFGELCHRYKCLLLVDSVASLGGTPLYMDRQGIDILYSGSQKALNAPPGTSLISFSDKAKKKMYSRKTKPFSFYLDIKWLANFWGCDDQPRMYHHTIPVISLYSLRESLALIAEQGLENSWRQHREAAAYLHGRLQALGLQLFVKDPALRLPTVTTVAVPAGYDWRDIVSYVMDHFDIEIMGGLGPSTGKVLRIGLLGCNATRENVDRVTEALRAALQHCPKKKL [Q23R S48H D52E V113A I340M] | 93.7 °C | 23.7 °C | 638 kcal/mol
MASHKLLVTPLKALLKPLSIPNQLLLGPGPSNLPPRIMAAGGLQMIGSMSKDMYQIMDEIKEGIQYVFQTRNPLTLVISGSGRCALEAALVNVLEPGDSFLVGANGIWGQRAVDIGERIGARVHPMTKDPGGHYTLQEVEEGLAQHKPVLLFLTHGESSTGVLQPLDGFGELCHRYKCLLLVDSVASLGGTPLYMDRQGIDILYSGSQKALNAPPGTSLISFSDKAKKKMYSRKTKPFSFYLDIKWLANFWGCDDQPRMYHHTIPVISLYSLRESLALIAEQGLENSWRQHREAAAYLHGRLQALGLQLFVKDPALRLPTVTTVAVPAGYDWRDIVSYVMDHFDIEIMGGLGPSTGKVLRIGLLGCNATRENVDRVTEALRAALQHCPKKKL [P11L I340M H83R] | 58.2 °C | -11.8 °C | 235 kcal/mol
MASHKLLVTPPKALLKPLSIPNRLLLGPGPSNLPPRIMAAGGLQMIGHMSKEMYQIMDEIKEGIQYVFQTRNPLTLVISGSGHCALEAALVNVLEPGDSFLVGANGIWGQRAVDIGERIGARVHPMTKDPGGHYTLQEVEEGLAQHKPVLLFLTHGESSTGVLQPLDGFGELCHRYKCLLLVDSVASLGGTPLYMDRQGIDILYSGSQKALNAPPGTSLISFSDKAKKKMYSRKTKPFSFYLDIKWLANFWGCDDQPRMYHHTIPVISLYSLRESLALIAEQGLENSWRQHREAAAYLHGRLQALGLQLFVKDPALRLPTVTTVAVPAGYDWRDIVSYVMDHFDIEIMGGLGPSTGKVLRIGLLGCNATRENVDRVTEALRAALQHCPKKKL [Q23R S48H D52E I340M] | 92 °C | 22 °C | 609 kcal/mol
MASHKLLVTPLKALLKPLSIPNQLLLGPGPSNLPPRIMAAGGLQMIGSMSKDMYQIMDEIKEGIQYVFQTRNPLTLVISGSGHCALEAALVNVLEPGDSFLVGANGIWGQRAVDIGERIGARVHPMTKDPGGHYTLQEVEEGLAQHKPVLLFLTHGESSTGVLQPLDGFGELCHRYKCLLLVDSVASLGGTPLYMDRQGIDILYSGSQKALNAPPGTSLISFSDKAKKKMYSRKTKPFSFYLDIKWLANFWGCDDQPRMYHHTIPVISLYSLRESLALIAEQGLENSWRQHREAAAYLHGRLQALGLQLFVKDPALRLPTVTTVAVPAGYDWRDIVSYVIDHFDIEIMGGLGPSTGKVLRIGLLGCNATRENVDRVTEALRAALQHCPKKKL [P11L] | 73.8 °C | 3.8 °C | 399 kcal/mol
MASHKLLVTPLKALLKPLSIPNQLLLGPGPSNLPPRIMAAGGLQMIGSMSKDMYQIMDEIKEGIQYVFQTRNPLTLVISGSGHCALEAALVNVLEPGDSFLVGANGIWGQRAVDIGERIGARVHPMTKDPGGHYTLQEVEEGLAQHKPVLLFLTHGESSTGVLQPLDGFGELCHRYKCLLLVDSVASLGGTPLYMDRQGIDILYSGSQKALNAPPGTSLISFSDKAKKKMYSRKTKPFSFYLDIKWLANFWGCDDQPRMYHHTIPVISLYSLRESLALIAEQGLENSWRQHREATAYLHGRLQALGLQLFVKDPALRLPTVTTVAVPAGYDWRDIVSYVMDHFDIEIMGGLGPSTGKVLRIGLLGCNATRENVDRVTEALRAALQHCPKKKL [P11L I340M A295T] | 77.5 °C | 7.5 °C | 500 kcal/mol
MASHKLLVTPLKALLKPLSIPNQLLLGPGPSNLPPRIMAAGGLQMIGSMSKDMYQIMDEIKEGIQYVFQTRNPLTLVISGSGHCALEAALVNVLEPGDSFLVGANGIWGQRAVDIGERIGARVHPMTKDPGGHYTLQEVEEGLAQHKPVLLFLTHGESSTGVLQPLDGFRELCHRYKCLLLVDSVASLGGTPLYMDRQGIDILYSGSQKALNAPPGTSLISFSDKAKKKMYSRKTKPFSFYLDIKWLANFWGCDDQPRMYHHTIPVISLYSLRESLALIAEQGLENSWRQHREAAAYLHGRLQALGLQLFVKDPALRLPTVTTVAVPAGYDWRDIVSYVMDHFDIEIMGGLGPSTGKVLRIGLLGCNATRENVDRVTEALRAALQHCPKKKL [P11L I340M G170R] | 75.5 °C | 5.5 °C | 459 kcal/mol
MASHKLLVTPPKALLKPLSIPNRLLLGPGPSNLPPRIMAAGGLQMIGSMSKDMYQIMDEIKEGIQYVFQTRNPLTLVISGSGHCALEAALVNVLEPGDSFLVGANGIWGQRAVDIGERIGARVHPMTKDPGGHYTLQEVEEGLAQHKPVLLFLTHGESSTGVLQPLDGFGELCHRYKCLLLVDSVASLGGTPLYMDRQGIDILYSGSQKALNAPPGTSLISFSDKAKKKMYSRKTKPFSFYLDIKWLANFWGCDDQPRMYHHTIPVISLYSLRESLALIAEQGLENSWRQHREAAAYLHGRLQALGLQLFVKDPALRLPTVTTVAVPAGYDWRDIVSYVIDHFDIEIMGGLGPSTGKVLRIGLLGCNATRENVDRVTEALRAALQHCPKKKL [Q23R] | 84.5 °C | 14.5 °C | 475 kcal/mol
MASHKLLVTPPKALLKPLSIPNQLLLGPGPSNLPPRIMAAGGLQMIGHMSKDMYQIMDEIKEGIQYVFQTRNPLTLVISGSGHCALEAALVNVLEPGDSFLVGANGIWGQRAVDIGERIGARVHPMTKDPGGHYTLQEVEEGLAQHKPVLLFLTHGESSTGVLQPLDGFGELCHRYKCLLLVDSVASLGGTPLYMDRQGIDILYSGSQKALNAPPGTSLISFSDKAKKKMYSRKTKPFSFYLDIKWLANFWGCDDQPRMYHHTIPVISLYSLRESLALIAEQGLENSWRQHREAAAYLHGRLQALGLQLFVKDPALRLPTVTTVAVPAGYDWRDIVSYVMDHFDIEIMGGLGPSTGKVLRIGLLGCNATRENVDRVTEALRAALQHCPKKKL [S48H I340M] | 88 °C | 18 °C | 599 kcal/mol
MASHKLLVTPLKALLKPLSIPNQLLLGPGPSNLPPRIMAAGGLQMIGSMSKDMYQIMDEIKEGIQYVFQTRNPLTLVISGSGHCALEAALVNVLEPGDSFLVGANGIWGQRAVDIGERIGARVHPMTKDPGGHYTLQEVEEGLAQHKPVLLFLTHGESSTGVLQPLDGFGELCHRYKCLLLVDSVASLGGTPLYMDRQGIDILYSGSQKALNAPPGTSLISFSDKAKKKMYSRKTKPFSFYLDIKWLANFWGCDDQPRMYHHTIPVISLYSLRESLALIAEQGLENSWRQHREAAAYLHGRLQALGLQLFVKDPALRLPTVTTVAVPAGYDWRDIVSYVMDHFDIEIMGGLGPSTGKVLRIGLLGCNATRENVDRVTEALRAALQHCPKKKL [P11L I340M] | 76.6 °C | 6.6 °C | 375 kcal/mol
MASHKLLVTPPKALLKPLSIPNQLLLGPGPSNLPPRIMAAGGLQMIGHMSKDMYQIMDEIKEGIQYVFQTRNPLTLVISGSGHCALEAALVNVLEPGDSFLVGANGIWGQRAVDIGERIGARVHPMTKDPGGHYTLQEVEEGLAQHKPVLLFLTHGESSTGVLQPLDGFGELCHRYKCLLLVDSVASLGGTPLYMDRQGIDILYSGSQKALNAPPGTSLISFSDKAKKKMYSRKTKPFSFYLDIKWLANFWGCDDQPRMYHHTIPVISLYSLRESLALIAEQGLENSWRQHREAAAYLHGRLQALGLQLFVKDPALRLPTVTTVAVPAGYDWRDIVSYVIDHFDIEIMGGLGPSTGKVLRIGLLGCNATRENVDRVTEALRAALQHCPKKKL [S48H] | 85.5 °C | 15.5 °C | 520 kcal/mol
MASHKLLVTPPKALLKPLSIPNQLLLGPGPSNLPPRIMAAGGLQMIGSMSKEMYQIMDEIKEGIQYVFQTRNPLTLVISGSGHCALEAALVNVLEPGDSFLVGANGIWGQRAVDIGERIGARVHPMTKDPGGHYTLQEVEEGLAQHKPVLLFLTHGESSTGVLQPLDGFGELCHRYKCLLLVDSVASLGGTPLYMDRQGIDILYSGSQKALNAPPGTSLISFSDKAKKKMYSRKTKPFSFYLDIKWLANFWGCDDQPRMYHHTIPVISLYSLRESLALIAEQGLENSWRQHREAAAYLHGRLQALGLQLFVKDPALRLPTVTTVAVPAGYDWRDIVSYVIDHFDIEIMGGLGPSTGKVLRIGLLGCNATRENVDRVTEALRAALQHCPKKKL [D52E] | 84.4 °C | 14.4 °C | 544 kcal/mol
